Test results taken from US20150197568A1 (AstraZeneca / MedImmune, published 2015).

B1: Cynomolgus IL-6 (ligand, UniProt P79341 28-212, looked up)
chain: APVLPGEDSKDVAAPHSQPLTSSERIDKHIRYILDGISALRKETCNRSNMCESSKEALAENNLNLPKMAEKDGCFQSGFNEDTCLVKIITGLLEFEVYLEYLQNRFESSEEQARAVQMSTKVLIQFLQKKAKNLDAITTPEPTTNASLLTKLQAQNQWLQDMTTHLILRSFKEFLQSSLRALRQM
notes: mature; also called cyno IL-6; macaque IL-6

Legend:
[1] = molecular target: T1, CAN022D10 IgG; assay: DELFIA epitope competition; protein titrated against biotinylated HIS FLAG IL-6 on immobilised CAN022D10 IgG
T1 construct: Biotinylated in the HTRF antibody-ligand assay; also called CAN22D10; parent IgG
Method: Titrations of IL-6 species including cynomolgus (in house E. Coli derived), human HIS FLAG IL-6 (in house HEK-EBNA derived), rat and murine IL-6 (both R & D Systems) were tested in each assay to establish the species cross-reactivity of the antibodies. Details of the protocol are provided in the Materials and Methods section.
Purified IgG were adsorbed onto 96-well Maxisorp microtitre plates (Nunc) in PBS at a concentration which gave a significant signal when biotinylated human IL-6 was added at approximately its estimated Kd for that particular IgG. Excess IgG was washed away with PBS-Tween (0.1% v/v) and the wells were blocked with PBS-Marvel (3% w/v) for 1 h. […] These mixtures were then transferred onto the blocked IgG and allowed to equilibrate for 1.5 h. Unbound antigen was removed by washing with PBS-Tween (0.1% v/v), while the remaining biotinylated human IL-6 was detected by streptavidin-Europium3+ conjugate (DELFIA® detection, PerkinElmer). Time-resolved fluorescence was measured at 620 nm on an EnVision plate reader (PerkinElmer). Fluorescence data was converted to % specific binding (100% was determined from control wells containing biotinylated human IL-6 but no competitor, 0% was from wells containing biotinylated human IL-6 and a 100-fold excess of unbiotinylated human IL-6). Resultant data were analysed using Prism curve fitting software (Graphpad) to determine IC50 values according to Equation 3.

[2] = molecular target: T2, HIS FLAG tagged human IL-6 (human, UniProt P05231 30-212); assay: HTRF receptor-ligand competition; HIS FLAG human IL-6 vs biotinylated sIL-6R
T2 construct: In house; also called HIS FLAG IL-6; HIS/FLAG IL-6
Method: Unique scFvs were expressed again in bacteria and purified by affinity chromatography (as described by Bannister et al. Purified IgG samples of these clones were also prepared as described in section 1.3. The potencies of these samples were determined by competing a dilution series of the purified preparation against biotinylated sIL-6R for binding to HIS FLAG tagged human IL-6 (in house E. coli derived).
Purified scFv and IgG from positive clones identified from screening were tested in a HTRF® assay for inhibition of binding of HIS FLAG tagged human IL-6 to biotinylated IL-6R. 8 nM biotinylated human IL-6R was pre-incubated for 30 minutes at room temperature in the dark, with 8 nM streptavidin XL^{ent!}™. All dilutions were done in phosphate buffered saline (PBS) containing 0.4 M potassium fluoride and 0.1% BSA (assay buffer).

[3] = molecular target: T3, Mature human IL-6 (human, UniProt P05231 30-212); assay: cell-based or functional assay
Target sequence in this assay (P05231 30-212): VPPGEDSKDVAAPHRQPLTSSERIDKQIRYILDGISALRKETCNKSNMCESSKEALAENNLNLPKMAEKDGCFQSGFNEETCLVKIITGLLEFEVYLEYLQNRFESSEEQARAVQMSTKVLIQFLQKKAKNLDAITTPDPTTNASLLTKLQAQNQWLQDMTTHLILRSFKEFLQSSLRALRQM

[4] = molecular target: T3, Mature human IL-6; assay: cell-based or functional assay; remark: listed apart in the source
Target sequence in this assay (P05231 30-212): as above

[5] = molecular target: T3, Mature human IL-6; assay: cell-based or functional assay; remark: listed apart in the source
[6] = molecular target: T3, Mature human IL-6; assay: SPR, BIAcore 2000; IgG amine-coupled to CM5 chip, IL-6 as analyte
Method: (§1) Human and cynomolgus IL-6 at a range of concentrations between 200 nM and 0.2 nM in HBS-EP buffer were passed over the sensor chip surface. The resulting sensorgrams were evaluated using BIA evaluation 3.1 software to provide relative binding data.
(§2) BIAcore studies were undertaken using a BIAcore 2000™. […] Human IL-6 at a range of concentrations between 200 nM and 0.2 nM in HBS-EP buffer were passed over the sensor chip surface. The resulting sensorgrams were evaluated using BIA evaluation 3.1 software to calculate the kₒₙ, koff and KD values for the antibodies tested.

[7] = molecular target: B1; assay: as above
Method: as §1, §2

[8] = molecular target: T3, Mature human IL-6; assay: cell-based or functional assay; remark: listed apart in the source
Target sequence in this assay (P05231 30-212): as above

[9] = molecular target: T2, HIS FLAG tagged human IL-6; assay: HTRF antibody-ligand competition; competitor biotinylated CAN022D10 IgG; protocol modified for IgG (footnote)
Method: Crude scFv preparations from a representative number of individual clones for the round 3 and round 4 outputs were screened for their inhibitory activity in a CAN022D10 IgG-IL-6 HTRF® binding assay. In this assay, binding of biotinyated antibody and FLAG-tagged IL-6 was detected using cryptate labelled anti-FLAG monoclonal antibody and streptavidin XL^{ent!}™. The detailed assay method is provided in the Materials and Methods section.
The IC₅₀ value for each scFv was then calculated from data obtained by a testing dilution series of the purified sample in the HTRF antibody-ligand biochemical assay and TF-1 proliferation assay.
Target sequence in this assay (P05231 other isoform, or with tags, fused parts or gaps): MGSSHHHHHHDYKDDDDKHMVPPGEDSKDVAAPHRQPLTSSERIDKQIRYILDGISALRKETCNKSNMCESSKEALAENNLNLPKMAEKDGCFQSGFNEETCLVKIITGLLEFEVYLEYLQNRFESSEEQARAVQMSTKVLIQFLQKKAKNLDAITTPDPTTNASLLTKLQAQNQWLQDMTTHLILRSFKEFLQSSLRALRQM

Row | IC50, IL-6 induced TF-1 cell proliferation assay [3] | IC50, endogenous IL-6 induced synovial fibroblast VEGF release assay [4] | Mean IC50, inhibition of IL-6 induced IgM secretion from SKW6.4 cells, n=3 [5] | Binder | further results
1 |  |  |  | B1 | IC50 [1]: ~100 nM
2 |  |  |  | CAN022D10 scFv (scFv, V domains shown, Purified scFv from bacteria; also called CAN22D10; parent; not shown: scFv linker, domain order and any purification tags) VH: EVQLVQSGGGLIQPGGSLRLSCAASGFTISSNYMIWVRQAPGKGLEWVSDLYYYAGDTYYADSVKGRFTMSRDISKNTVYLQMNSLRAEDTGVYYCARWADDHYYYIDVWGRGTLVTVSS VL: DIVMTQSPSTLSASVGDRVTITCRASQGISSWLAWYQQKPGRAPKVLIYKASTLESGVPSRFSGSGSGTDFTLTISSLQPEDFATYYCQQSYSTPWTFGQGTKLEIKR | IC50 [2]: 45 nM
3 | 0.001 nM | 0.57 nM | 0.00321 nM | Antibody 17 (GL) IgG (antibody, V domains shown) VH: EVQLVESGGGLVQPGGSLRLSCAASGFTISSNYMIWVRQAPGKGLEWVSDLYYYAGDTYYADSVKGRFTMSRDISKNTVYLQMNSLRAEDTAVYYCARWADDHPPYIDMWGRGTLVTVSS VL: DIQMTQSPSTLSASVGDRVTITCRASQGISSWLAWYQQKPGKAPKVLIYKASTLESGVPSRFSGSGSGTEFTLTISSLQPDDFATYYCQQSWLGGSFGQGTKLEIKR | 
4 | 0.005 nM | 0.75 nM | 0.00264 nM | Antibody 7 (GL) IgG (antibody, V domains shown, Germlined IgG1 with human kappa constant domain; also called Ab 7) VH: EVQLVESGGGLVQPGGSLRLSCAASGFTISSNYMIWVRQAPGKGLEWVSDLYYYAGDTYYADSVKGRFTMSRDISKNTVYLQMNSLRAEDTAVYYCARWADDHPAWVDLWGRGTLVTVSS VL: DIQMTQSPSTLSASVGDRVTITCRASQGISSWLAWYQQKPGKAPKVLIYKASTLESGVPSRFSGSGSGTEFTLTISSLQPDDFATYYCQQSWLGGSFGQGTKLEIKR | Kd [6]: < 0.01 nM; Kd [7]: < 0.01 nM
5 | 0.003 nM | 0.93 nM | 0.00263 nM | Antibody 18 (GL) IgG (antibody, V domains shown, Germlined IgG1/kappa; also called Ab 18) VH: EVQLVESGGGLVQPGGSLRLSCAASGFTISSNYMIWVRQAPGKGLEWVSDLYYYAGDTYYADSVKGRFTMSRDISKNTVYLQMNSLRAEDTAVYYCARWADDHPPWIDLWGRGTLVTVSS VL: DIQMTQSPSTLSASVGDRVTITCRASQGISSWLAWYQQKPGKAPKVLIYKASTLESGVPSRFSGSGSGTEFTLTISSLQPDDFATYYCQQSWLGGSFGQGTKLEIKR | Kd [6]: < 0.01 nM; Kd [7]: < 0.01 nM
6 |  | 0.7 nM |  | Antibody 5 IgG (antibody, V domains shown, Non-germlined; IgG1 with human heavy chain and kappa constant domains; also called Ab 5) VH: EVQLVQSGGGLIQPGGSLRLSCAASGFTISSNYMIWVRQAPGKGLEWVSDLYYYAGDTYYADSVKGRFTMSRDISKNTVYLQMNSLRAEDTGVYYCARWADGHYYYADVWGRGTLVSVSS VL: DIVMTQSPPTLSASVGDRVTITCRASQGISSWLAWYQQKPGRAPKVLIYKASTLESGVPSRFSGSGSGTDFTLTISSLQPEDFASYYCQQSYSAPWTFGQGTKLEIKR | IC50, TF-1 Proliferation Assay [8]: 0.042 nM; IC50 [9]: 0.026 nM
7 |  | 0.52 nM |  | Antibody 4 IgG (antibody, V domains shown, Non-germlined; IgG1 with human heavy chain and kappa constant domains; also called Ab 4) VH: EVQLVQSGGGLIQPGGSLRLSCAASGFTVSSNYMTWVRQAPGKGLEWVSDLYYYAGDTYYADSVKGRFTMSRDISKNTVYLQMNSLRAEDTGVYYCARWADGHYYYADVWGRGTLVSVSS VL: DIVMTQSPSTLSASVGDRVTITCRASQGISSWLAWYQQKPGRAPKVLIYKASTLESGVPSRFSGSGSGTDFTLTISSLQPEDFASYYCQQSYSAPWTFGQGTKLELKR | IC50, TF-1 Proliferation Assay [8]: 0.061 nM; IC50 [9]: 0.043 nM
